Substitutions are numbered along the chain they refer to. Blank lines part the entries; values can stand above or below the binder they belong to.
How the values were obtained:
human CD98hc = target: T1, human CD98hc (human, UniProt P08195 109-529); test: SPR (Biacore)
T1 construct: also called huCD98hc; CD98 heavy chain
T1 sequence: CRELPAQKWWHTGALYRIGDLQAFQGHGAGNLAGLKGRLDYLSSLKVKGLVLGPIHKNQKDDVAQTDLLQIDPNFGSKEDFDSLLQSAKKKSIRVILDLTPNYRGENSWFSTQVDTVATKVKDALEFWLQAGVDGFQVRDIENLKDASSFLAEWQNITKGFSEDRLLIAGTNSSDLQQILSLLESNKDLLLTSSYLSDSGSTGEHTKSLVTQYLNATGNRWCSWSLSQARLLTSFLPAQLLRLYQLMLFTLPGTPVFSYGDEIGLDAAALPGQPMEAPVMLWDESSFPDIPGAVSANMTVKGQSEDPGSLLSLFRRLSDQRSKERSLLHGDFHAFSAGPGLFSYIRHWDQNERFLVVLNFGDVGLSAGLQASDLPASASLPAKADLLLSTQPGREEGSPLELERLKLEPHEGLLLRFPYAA
In short: (§1)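 Engineered Fc polypeptides, made as Fc-Fab fusions with anti-BACE1 Fabs, were assessed for Kd toward CD98hc. Measurements were taken by surface plasmon resonance with a Biacore instrument, in a bivalent format or in a monovalent knob/hole format whose CD98hc-binding site sat on the knob chain alone.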

cyno CD98hc = target: T2, cyno CD98hc (cynomolgus monkey); test: SPR (Biacore)
T2 construct: also called cynomolgus CD98hc; cyCD98hc
In short: as §1

B1: LLB2-1 (Fc fusion)
chain: APELLGGPSVFLFPPKPKDTLMISRTPEVTCVVVDVSHEDPEVKFNWYVDGVEVHNAKTKPREEQYNSTYRVVSVLTVLHQDWLNGKEYKCKVSNKALPAPIEKTISKAKGQPREPQVYTLPPSRDELTKNQVSLTCLVKGFYPSDIAVLWNSRFSLENNYKTTPPVLDSDGSFFLYSKLTVDKSRWQQGNIFACNVLHEALHNHYTFKNLSLSPGK
notes: Fc part only
- Kd (human CD98hc): 950 nM
- Kd (cyno CD98hc): 4300 nM

B4: LLB2-10-8-d5 BV (Fc fusion)
chain: B1 chain with S156V, I192V, L198Y
notes: Fc part only; changes read against LLB2-10-8; BV = bivalent
- Kd (human CD98hc): 1470 nM
- Kd (cyno CD98hc): 5500 nM

B5: LLB2-10-1 (Fc fusion)
chain: B1 chain with S156V, S212A
notes: Fc part only
- Kd (human CD98hc): 795 nM
- Kd (cyno CD98hc): 4200 nM

B8: LLB2-10-6 (Fc fusion)
chain: B1 chain with S156V, L198Y, S212A
notes: Fc part only
- Kd (human CD98hc): 460 nM
- Kd (cyno CD98hc): 2100 nM

B10: LLB2-10-8-d13 BV (Fc fusion)
chain: B1 chain with R154Q, F155Y, S156E, N191E, L198Y
notes: as for B4
- Kd (human CD98hc): 650 nM
- Kd (cyno CD98hc): 2600 nM

B11: LLB2-10-4 (Fc fusion)
chain: B1 chain with A148V, S156V, S212A
notes: Fc part only
- Kd (human CD98hc): 630 nM
- Kd (cyno CD98hc): 3000 nM

B13: LLB2-10-8-d2 BV (Fc fusion)
chain: B1 chain with S156V, N191E, I192V, L198Y
notes: as for B4
- Kd (human CD98hc): 490 nM
- Kd (cyno CD98hc): 2300 nM

B14: LLB2-10-8-d6 BV (Fc fusion)
chain: B1 chain with S156V, I192V, L198Y, S212A
notes: Fc part only; BV = bivalent
- Kd (human CD98hc): 1480 nM
- Kd (cyno CD98hc): 5300 nM

B15: LLB2-10-8-d3 BV (Fc fusion)
chain: B1 chain with S156V, N191E, I192V, L198Y, S212A
notes: Fc part only; BV = bivalent
- Kd (human CD98hc): 490 nM
- Kd (cyno CD98hc): 2600 nM

B16: LLB2-10-8-d15 BV (Fc fusion)
chain: B1 chain with R154Q, F155Y, S156E, N191E, I192V, L198Y, S212A
notes: as for B4
- Kd (human CD98hc): 1000 nM
- Kd (cyno CD98hc): 4600 nM

B18: LLB2-10-8-d11 BV (Fc fusion)
chain: B1 chain with R154H, F155Y, S156E, I192V, L198Y
notes: as for B4
- Kd (human CD98hc): 2400 nM
- Kd (cyno CD98hc): 7200 nM

B19: LLB2-10 (Fc fusion)
chain: B1 chain with S156V
notes: Fc part only
- Kd (human CD98hc): 680 nM
- Kd (cyno CD98hc): 2700 nM

B21: LLB2-10-8-d12 BV (Fc fusion)
chain: B1 chain with R154H, F155Y, S156E, I192V, L198Y, S212A
notes: Fc part only; BV = bivalent
- Kd (human CD98hc): 2100 nM
- Kd (cyno CD98hc): 5970 nM

B22: LLB2-10-8-d16 BV (Fc fusion)
chain: B1 chain with R154Q, F155Y, S156E, L198Y
notes: as for B4
- Kd (human CD98hc): 650 nM
- Kd (cyno CD98hc): 2500 nM

B25: LLB2-10-7 (Fc fusion)
chain: B1 chain with S156V, N204S, S212A
notes: Fc part only
- Kd (human CD98hc): 1100 nM
- Kd (cyno CD98hc): 6200 nM

B26: LLB2-9 (Fc fusion)
chain: B1 chain with S156Q
notes: Fc part only
- Kd (human CD98hc): 750 nM
- Kd (cyno CD98hc): 3300 nM

B27: LLB2-10-8-d14 BV (Fc fusion)
chain: B1 chain with R154Q, F155Y, S156E, N191E, I192V, L198Y
notes: as for B4
- Kd (human CD98hc): 960 nM
- Kd (cyno CD98hc): 4050 nM

B28: LLB2-8 (Fc fusion)
chain: B1 chain with S156E
notes: Fc part only
- Kd (human CD98hc): 790 nM
- Kd (cyno CD98hc): 3200 nM

B29: LLB2-10-8-d7 BV (Fc fusion)
chain: B1 chain with R154H, F155Y, S156E, N191E, L198Y
notes: as for B4
- Kd (human CD98hc): 410 nM
- Kd (cyno CD98hc): 2000 nM

B32: LLB2-10-8 (Fc fusion)
chain: B1 chain with S156V, N191E, L198Y, S212A
notes: Fc part only
- Kd (human CD98hc): 170 nM
- Kd (cyno CD98hc): 890 nM

B33: LLB2-10-5 (Fc fusion)
chain: B1 chain with S156V, N191E, S212A
notes: Fc part only
- Kd (human CD98hc): 390 nM
- Kd (cyno CD98hc): 2200 nM

B35: LLB2-10-8-d9 BV (Fc fusion)
chain: B1 chain with R154H, F155Y, S156E, N191E, I192V, L198Y, S212A
notes: as for B4
- Kd (human CD98hc): 840 nM
- Kd (cyno CD98hc): 4200 nM

B37: LLB2-10-8-d10 BV (Fc fusion)
chain: B1 chain with R154H, F155Y, S156E, L198Y
notes: as for B4
- Kd (human CD98hc): 1400 nM
- Kd (cyno CD98hc): 4200 nM

B38: LLB2-10-8-d1 BV (Fc fusion)
chain: B1 chain with S156V, N191E, L198Y
notes: Fc part only; BV = bivalent
- Kd (human CD98hc): 280 nM
- Kd (cyno CD98hc): 1500 nM

B43: LLB2-10-8-d4 BV (Fc fusion)
chain: B1 chain with S156V, L198Y
notes: as for B4
- Kd (human CD98hc): 670 nM
- Kd (cyno CD98hc): 2600 nM

B44: LLB2-10-8-d8 BV (Fc fusion)
chain: B1 chain with R154H, F155Y, S156E, N191E, I192V, L198Y
notes: as for B4
- Kd (human CD98hc): 820 nM
- Kd (cyno CD98hc): 3500 nM

The next lines start with the values.

- Kd (human CD98hc): 230 nM
- Kd (cyno CD98hc): 1200 nM
B2: LLB2-10-11 (Fc fusion)
chain: B1 chain with S156L, N191E, L198Y, S212A
notes: Fc part only

- binding result (human CD98hc): no binding
B3: LLB2-32 (Fc fusion)
chain: B1 chain with N152L, S153D, R154F, L198F, N210V, S212A
notes: Fc part only

- Kd (human CD98hc): 210 nM
- Kd (cyno CD98hc): 1200 nM
B6: LLB2-10-12 (Fc fusion)
chain: B1 chain with S156V, N191E, L198Y, S212Q
notes: Fc part only

- binding result (human CD98hc): no binding
B7: LLB2-27 (Fc fusion)
chain: B1 chain with N152M, S153N, R154H, S156T, L198M, N210P, S212P
notes: Fc part only

- Kd (human CD98hc): 990 nM
- Kd (cyno CD98hc): 5000 nM
B9: LLB2-12 (Fc fusion)
chain: B1 chain with N204S
notes: Fc part only

- Kd (human CD98hc): 1300 nM
- Kd (cyno CD98hc): 8200 nM
B12: LLB2-11 (Fc fusion)
chain: B1 chain with L198M
notes: Fc part only

- Kd (human CD98hc): 420 nM
- Kd (cyno CD98hc): 2300 nM
B17: LLB2-21 (Fc fusion)
chain: B1 chain with A148D, S156L, N159T, Y161T, N191E, S212K
notes: Fc part only

- Kd (human CD98hc): 5400 nM
B20: LLS2.33.3 (Fc fusion)
chain: B1 chain with L150E, N152S, R154Q, F155Y, S156E, I192M, L198W
notes: Fc part only; also called LLB2.33.3

- Kd (human CD98hc): 260 nM
- Kd (cyno CD98hc): 1100 nM
B23: LLB2-10-13 (Fc fusion)
chain: B1 chain with R154Q, S156L, N191E, L198Y, S212Q
notes: Fc part only

- binding result (human CD98hc): no binding
B24: LLB2-29 (Fc fusion)
chain: B1 chain with N152Y, S153D, R154L, S156V, N210E, L211P, S212F
notes: Fc part only

- Kd (human CD98hc): 220 nM
- Kd (cyno CD98hc): 1100 nM
B30: LLB2-10-10 (Fc fusion)
chain: B1 chain with R154Q, S156V, N191E, L198Y, S212A
notes: Fc part only

- Kd (human CD98hc): 1800 nM
- Kd (cyno CD98hc): 9100 nM
B31: LLB2-18 (Fc fusion)
chain: B1 chain with A148V, S156A, N159Q, Y161V, N191Q, Y206L, S212V
notes: Fc part only

- Kd (human CD98hc): 850 nM
- Kd (cyno CD98hc): 3800 nM
B34: LLB2-13 (Fc fusion)
chain: B1 chain with R154Q, S156L
notes: Fc part only

- Kd (human CD98hc): 2000 nM
- Kd (cyno CD98hc): 9200 nM
B36: LLB2-17 (Fc fusion)
chain: B1 chain with A148S, S156A, N159D, Y161T, N191E, S212A
notes: Fc part only

- Kd (human CD98hc): 880 nM
- Kd (cyno CD98hc): 3010 nM
B39: LLB2-10-8-d18 BV (Fc fusion)
chain: B1 chain with R154Q, F155Y, S156E, I192V, L198Y, S212A
notes: Fc part only; BV = bivalent

- Kd (human CD98hc): 250 nM
- Kd (cyno CD98hc): 1300 nM
B40: LLB2-10-9 (Fc fusion)
chain: B1 chain with A148V, S156V, N191E, L198Y, S212A
notes: Fc part only

- Kd (human CD98hc): 1200 nM
- Kd (cyno CD98hc): 5500 nM
B41: LLB2-20 (Fc fusion)
chain: B1 chain with A148V, S156V, N159D, Y161V, N191A, Y206H, S212V
notes: Fc part only

- Kd (human CD98hc): 960 nM
- Kd (cyno CD98hc): 4100 nM
B42: LLB2-10-8-d17 BV (Fc fusion)
chain: B1 chain with R154Q, F155Y, S156E, I192V, L198Y
notes: as for B4

- binding result (human CD98hc): no binding
B45: LLB2-34 (Fc fusion)
chain: B1 chain with N152T, S153Q, R154F, S156A, L198I, N210V, L211P, S212Q
notes: Fc part only

- Kd (human CD98hc): 9200 nM
B46: LLB2-19 (Fc fusion)
chain: B1 chain with A148V, N159A, Y161V, N191Q, Y206V, S212V
notes: Fc part only
